Laboratory results taken from patent US20220387586A1 (Hoffmann-La Roche, published 2022).
Blank lines part the entries; values can stand above or below the binder they belong to.

Tests used:
[1] = target: T1, full-length human PD1 on cells (human, UniProt Q15116 25-288); test: cell ELISA on CHO-K1 cells expressing full-length human PD1 (rel. EC50)
T1 construct: also called CHO-PD1
Procedure: (to avoid internalization). After washing carefully (1×90 μl/well PBST) cells were fixed by adding 30 μl/well 0.05% Glutaraldehyde (Sigma, Cat.No: G5882, 25%) diluted in 1×PBS-buffer and incubated for 10 min at RT. After washing (3×90 μl/well PBST) 25 μl/well secondary antibody was added for detection: goat-anti-human H+L-POD (JIR, JIR109-036-088)/Sheep-anti-mouse-POD (GE NA9310) followed by 1 h incubation at RT on shaker. After washing (3×90 μl/well PBST) 25 μl/well TMB substrate solution (Roche 11835033001) was added and incubated until OD 1.0-2.0. Plates were measured at 370/492 nm.

[2] = target: T2, LAG3 on cells (recombinant CHO cells expressing Lag3) (human, UniProt P18627 29-525); test: cell ELISA on recombinant CHO cells expressing Lag3 (rel. EC50)
T2 construct: The cell ELISA paragraphs say only 'Lag3'; also called CHO-LAG3; Lag3 cells
T2 sequence: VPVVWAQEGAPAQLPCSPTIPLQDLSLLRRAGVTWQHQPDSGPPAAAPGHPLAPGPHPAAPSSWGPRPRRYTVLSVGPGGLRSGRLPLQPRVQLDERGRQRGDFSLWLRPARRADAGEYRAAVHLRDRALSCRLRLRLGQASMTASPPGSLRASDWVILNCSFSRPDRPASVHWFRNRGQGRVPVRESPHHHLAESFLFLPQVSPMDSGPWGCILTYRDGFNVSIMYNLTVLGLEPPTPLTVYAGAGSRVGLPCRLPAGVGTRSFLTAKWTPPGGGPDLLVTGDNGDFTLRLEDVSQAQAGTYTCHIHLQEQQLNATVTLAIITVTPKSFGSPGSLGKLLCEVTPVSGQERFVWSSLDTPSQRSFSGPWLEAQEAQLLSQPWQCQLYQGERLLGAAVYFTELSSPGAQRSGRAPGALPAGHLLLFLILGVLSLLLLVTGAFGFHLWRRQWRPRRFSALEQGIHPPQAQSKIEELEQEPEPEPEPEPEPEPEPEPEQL
Procedure: After washing (1×90 μl in PBST) cells were fixed by addition of 30 μl/well glutaraldehyde to a final concentration of 0.05% (Sigma Cat.No: G5882), 10 min at room temperature. After washing (3×90 μl/well with PBST-buffer) 25 μl/well goat anti-Human Ig κ chain antibody-HRP conjugate (Milipore, AP502P) was added in a 1:1000 dilution and incubated at RT for 1 h. After washing (3×90 μl/well with PBST-buffer) 25 μl/well TMB substrate (Roche, 11835033001) was added and incubated for 6-10 min. Measurement took place on a Tecan Safire 2 instrument at 370/492 nm.

biotinylated-Lag3 = target: T3, biotinylated-Lag3 (UniProt P18627 23-450, limits assumed, biotinylated); test: ELISA, inhibition of biotinylated-Lag3 binding to MHC-II on A375 cells (competitor MHC-II)
T3 construct: Probably a human LAG3 ECD construct; also called Lag3 (MHCII/ELISA)
T3 sequence (looked up): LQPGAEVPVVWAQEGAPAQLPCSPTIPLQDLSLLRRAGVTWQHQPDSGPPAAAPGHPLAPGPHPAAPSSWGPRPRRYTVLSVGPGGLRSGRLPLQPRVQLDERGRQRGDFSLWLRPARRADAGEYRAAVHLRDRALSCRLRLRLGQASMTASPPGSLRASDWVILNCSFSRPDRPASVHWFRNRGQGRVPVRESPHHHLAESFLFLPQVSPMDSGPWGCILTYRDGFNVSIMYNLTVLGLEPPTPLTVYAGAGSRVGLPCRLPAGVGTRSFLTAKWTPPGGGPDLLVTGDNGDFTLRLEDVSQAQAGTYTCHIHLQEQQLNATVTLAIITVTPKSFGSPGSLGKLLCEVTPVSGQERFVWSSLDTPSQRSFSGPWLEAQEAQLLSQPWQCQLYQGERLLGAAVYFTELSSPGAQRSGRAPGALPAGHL
Procedure: 25 μl/well of A375 cells (10000 cells/well) were seeded into tissue culture treated 384-well plates (Corning, 3701) and incubated at 37° C. overnight. […] After washing (1×90 μl in PBST) cells were fixed by addition of 30 μl/well glutaraldehyde to a final concentration of 0.05% (Sigma Cat.No: G5882), 10 min at room temperature. After washing (3×90 μl/well with PBST-buffer) 25 μl/well Poly-HRP40-Streptavidin (Fitzgerald, 65R-S104PHRPx) was added in a 1:2000 or 1:8000 dilution and incubated at RT for 1 h. After washing (3×90 μl/well with PBST-buffer) 25 μl/well TMB substrate (Roche, 11835033001) was added and incubated for 2 to 10 min. Measurement took place on a Tecan Safire 2 instrument at 370/492 nm.

[3] = target: T4, recombinant Human LAG-3 Fc Chimera Protein (R&D Systems, 2319-L3) (human, UniProt P18627 29-450); test: ELISA on coated Human LAG-3 Fc Chimera (rel. EC50)
T4 construct: Bought protein; also called huLAG3; not shown: Fc part of the chimera
T4 sequence: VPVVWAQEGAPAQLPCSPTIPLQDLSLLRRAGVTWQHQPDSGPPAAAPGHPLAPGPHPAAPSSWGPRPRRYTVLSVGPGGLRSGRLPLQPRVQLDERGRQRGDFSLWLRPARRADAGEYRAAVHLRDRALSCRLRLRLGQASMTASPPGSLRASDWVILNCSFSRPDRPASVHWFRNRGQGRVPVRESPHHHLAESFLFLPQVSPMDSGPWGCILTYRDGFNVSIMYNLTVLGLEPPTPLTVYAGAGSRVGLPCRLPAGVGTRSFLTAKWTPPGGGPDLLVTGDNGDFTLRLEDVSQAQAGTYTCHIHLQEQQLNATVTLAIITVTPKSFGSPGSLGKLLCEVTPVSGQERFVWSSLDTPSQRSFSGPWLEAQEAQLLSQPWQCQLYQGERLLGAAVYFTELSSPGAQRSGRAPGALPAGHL
Procedure: After washing (3×90 μl/well with PBST-buffer) each well was incubated with 90 μl blocking buffer (PBS+2% BSA+0.05% Tween 20) for 1 h at room temperature. […] After washing (3×90 μl/well with PBST-buffer) 25 μl/well goat anti-Human Ig κ chain antibody-HRP conjugate (Milipore, AP502P) was added in a 1:2000 dilution and incubated at RT for 1 h. After washing (3×90 μl/well with PBST-buffer) 25 μl/well TMB substrate (Roche, 11835033001) was added and incubated for 2-10 min. Measurement took place on a Tecan Safire 2 instrument at 370/492 nm.

[4] = target: T5, biotinylated PD1-ECD-AviHis (human, UniProt Q15116 25-170, biotinylated); test: ELISA on coated biotinylated PD1-ECD-AviHis (rel. EC50)
T5 construct: also called huPD1; hu PD1; not shown: Avi-His tag
Procedure: After washing (3×90 μl/well with PBST-buffer) 25 μl/well goat-anti-human H+L-POD (JIR, JIR109-036-098) was added in 1:5000 dilution and incubated at RT for 1 h on a shaker. After washing (3×90 μl/well with PBST-buffer) 25 μl/well of TMB substrate (Roche, 11835033001) was added and incubated until OD 2-3. Measurement took place at 370/492 nm.

[5] = target: T5, biotinylated PD1-ECD-AviHis; test: PD-L2 replacing ELISA on coated PD1-ECD-AviHis; competitor PD-L2 Fc chimera
Procedure: After washing (3×90 μl/well with PBST-buffer) 25 μl/well goat-anti-human H+L-POD (JIR, 109-036-088) was added in 1:2000 dilution and incubated at RT for 1 h on shaker. After washing (3×90 μl/well with PBST-buffer) 25 μl/well TMB (tetramethylbenzidine) substrate (Roche, #11835033001) was added and incubated until OD 2-3. Measurement took place at 370/492 nm.

[6] = target: T6, biotinylated cynoPD1-ECD-Biotin (cynomolgus, UniProt B0LAJ3 25-170, biotinylated; the site and any Avi or His tag are not stated in the passages shown); test: ELISA on coated cynoPD1-ECD-Biotin
T6 construct: also called cyPD1
Procedure: (§1) After washing (3×90 μl/well with PBST-buffer) 25 μl/well goat-anti-human H+L-POD (JIR, JIR109-036-088) was added in 1:1000 dilution and incubated at RT for 1 h on shaker. After washing (3×90 μl/well with PBST-buffer) 25 μl/well TMB substrate (Roche, 11835033001) was added and incubated until OD 2-3. Measurement took place at 370/492 nm.

[7] = target: T5, biotinylated PD1-ECD-AviHis; test: ELISA on coated biotinylated PD1-ECD-AviHis
Procedure: as §1, with “JIR109-036-088)/Sheep-anti-mouse-POD (GE Healthcare; NA9310)” for “JIR109-036-088)”, “1:2000/1:1000” for “1:1000”, “(Roche Catalogue No.” for “(Roche,”

T1 sequence (Q15116 25-288 limits assumed): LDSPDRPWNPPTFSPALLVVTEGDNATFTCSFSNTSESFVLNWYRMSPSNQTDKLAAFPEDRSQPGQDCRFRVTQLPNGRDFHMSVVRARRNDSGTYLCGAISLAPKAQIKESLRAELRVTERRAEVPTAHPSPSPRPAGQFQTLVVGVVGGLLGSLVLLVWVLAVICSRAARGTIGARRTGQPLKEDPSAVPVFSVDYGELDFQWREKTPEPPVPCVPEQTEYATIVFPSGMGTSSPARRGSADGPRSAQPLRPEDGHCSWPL
T5 sequence (Q15116 25-170): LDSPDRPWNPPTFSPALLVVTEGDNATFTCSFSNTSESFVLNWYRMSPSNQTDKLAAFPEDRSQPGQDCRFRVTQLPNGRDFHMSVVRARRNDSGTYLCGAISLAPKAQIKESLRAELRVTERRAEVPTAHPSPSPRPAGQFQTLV
T6 sequence (B0LAJ3 entry or part of it limits assumed): as the sequence (Q15116 25-170) above, with D2E, P10A, V19L, T35A, Q75R, T144A counted along it

EC50 [1]: 0.36 nM | EC50 [2]: 0.48 nM | IC50 (biotinylated-Lag3): 0.52 nM | EC50 [3]: 0.05 nM | EC50 [4]: 0.04 nM
B1: PD1/LAG3 9010 (bispecific antibody, human IgG1, kappa, L234A L235A)
heavy: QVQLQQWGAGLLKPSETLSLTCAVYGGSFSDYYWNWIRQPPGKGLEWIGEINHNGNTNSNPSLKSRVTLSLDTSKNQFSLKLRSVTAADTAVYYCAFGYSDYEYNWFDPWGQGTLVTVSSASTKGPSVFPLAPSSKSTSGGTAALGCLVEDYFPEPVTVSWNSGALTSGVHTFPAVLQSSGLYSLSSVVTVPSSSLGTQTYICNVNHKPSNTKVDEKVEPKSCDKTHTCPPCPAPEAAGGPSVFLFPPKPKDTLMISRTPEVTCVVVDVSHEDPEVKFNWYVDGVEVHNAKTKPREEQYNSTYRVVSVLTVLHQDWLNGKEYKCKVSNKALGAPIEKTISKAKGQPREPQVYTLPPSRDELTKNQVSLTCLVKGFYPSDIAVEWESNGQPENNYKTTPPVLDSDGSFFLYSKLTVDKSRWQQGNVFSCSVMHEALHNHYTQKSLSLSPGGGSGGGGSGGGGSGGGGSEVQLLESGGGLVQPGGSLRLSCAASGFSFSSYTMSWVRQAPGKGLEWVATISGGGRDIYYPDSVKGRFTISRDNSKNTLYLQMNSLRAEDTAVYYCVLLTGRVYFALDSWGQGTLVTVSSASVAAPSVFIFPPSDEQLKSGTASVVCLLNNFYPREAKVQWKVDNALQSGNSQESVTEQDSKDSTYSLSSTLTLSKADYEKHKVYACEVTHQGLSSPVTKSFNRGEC
light 1: DIVMTQSPDSLAVSLGERATINCKASESVDTSDNSFIHWYQQKPGQSPKLLIYRSSTLESGVPDRFSGSGSGTDFTLTISSLQAEDVAVYYCQQNYDVPWTFGQGTKVEIKSSASTKGPSVFPLAPSSKSTSGGTAALGCLVKDYFPEPVTVSWNSGALTSGVHTFPAVLQSSGLYSLSSVVTVPSSSLGTQTYICNVNHKPSNTKVDKKVEPKSC
light 2: not shown
notes: 2+2 format

IC50 [5]: 0.086 µg/mL | EC50 [6]: 0.0224 µg/mL | EC50 [7]: 0.0263 µg/mL
B2: PD1-0078 (antibody, V domains shown)
VH: QVQLQQPGAELVKPGASVKMSCKASGYTFTSTWMHWVKQRPGQGLEWIGAIDPSDSYTTYNQKFKGKATLTVDTSSTTAYMQLSSLTSEDSAVYYCTRSPFDYWGQGTTLTVSS
VL: DIVMTQSHKFMSTSVGDRVSITCKASQDVSTAVAWYQQKPGQSPKLLIYSASYRYTGVPDRFTGSGSGTDFTFAISSVQAEDLAVYYCQQHYSHPFTFGSGTKLEIK

EC50 [1]: 0.28 nM | EC50 [2]: 0.72 nM | IC50 (biotinylated-Lag3): 0.77 nM | EC50 [3]: 1.14 nM | EC50 [4]: 0.16 nM
B3: PD1/LAG3 0222 (bispecific antibody, human IgG1, kappa, L234A L235A)
heavy 1: not shown
heavy 2: QVQLQQWGAGLLKPSETLSLTCAVYGGSFSDYYWNWIRQPPGKGLEWIGEINHNGNTNSNPSLKSRVTLSLDTSKNQFSLKLRSVTAADTAVYYCAFGYSDYEYNWFDPWGQGTLVTVSSASTKGPSVFPLAPSSKSTSGGTAALGCLVEDYFPEPVTVSWNSGALTSGVHTFPAVLQSSGLYSLSSVVTVPSSSLGTQTYICNVNHKPSNTKVDEKVEPKSCDKTHTCPPCPAPEAAGGPSVFLFPPKPKDTLMISRTPEVTCVVVDVSHEDPEVKFNWYVDGVEVHNAKTKPREEQYNSTYRVVSVLTVLHQDWLNGKEYKCKVSNKALGAPIEKTISKAKGQPREPQVCTLPPSRDELTKNQVSLSCAVKGFYPSDIAVEWESNGQPENNYKTTPPVLDSDGSFFLVSKLTVDKSRWQQGNVFSCSVMHEALHNHYTQKSLSLSPGK
light 1: QVQLQQSGPELVRPGVSVKISCKGSGYTFTDYAMHWVKQSHARTLEWIGVISTYSGDTNYNQKFKDKATMTVDKSSSTAYLELARMTSEDSAIYYCARLGITTGFAYWGQGTLVTVSAASVAAPSVFIFPPSDEQLKSGTASVVCLLNNFYPREAKVQWKVDNALQSGNSQESVTEQDSKDSTYSLSSTLTLSKADYEKHKVYACEVTHQGLSSPVTKSFNRGEC
light 2: not shown
notes: 1+1 CrossMAb Vh-VL; also called PD1(0069)/aLAG3(25F7) 1+1; PD1-0069/LAG3 25F7 (1 + 1)

EC50 [1]: 0.06 nM | EC50 [2]: 0.86 nM | IC50 (biotinylated-Lag3): 0.79 nM | EC50 [3]: 0.86 nM | EC50 [4]: 0.04 nM
B4: PD1/LAG3 0224 (bispecific antibody, human IgG1, kappa, L234A L235A)
heavy 1: not shown
heavy 2: B3 heavy 2
light 1: DVQLQESGPGLVKPSQSLSLTCTVTGYSITSDYAWNWIRQFPGDKLEWLGYITYSGFTNYNPSLKSRISISRDTSKNQFFLQLNSVATEDTATYYCARWHGSAPWYFDYWGRGTTLTVSSASVAAPSVFIFPPSDEQLKSGTASVVCLLNNFYPREAKVQWKVDNALQSGNSQESVTEQDSKDSTYSLSSTLTLSKADYEKHKVYACEVTHQGLSSPVTKSFNRGEC
light 2: not shown
notes: 1+1 CrossMAb Vh-VL; also called PD1(0098)/aLAG3(25F7) 1+1; PD1-0098/LAG3 25F7 (1 + 1)
